# B1: VH:VL chains; a variant is named by its letters at X, in order (parent)
# chain 1: QVQLVQSGAEVKKPGASVKVSCKASGYTFTDYXMHWVRQAPGQGLEWMGXVNPNXXXTTYNQKFEGRVTMTTDTSTSTAYMELRSLRSDDTAVYYCARXNXLDXWGQGTTVTVSS
# chain 2: DIQMTQSPSSLSASVGDRVTITCSVSSSVSSIYLHWYQQKPGKAPKLLIYSTSNLASGVPSRFSGSGSGTDFTLTISSLQPEDFATYYCQVYSGYPLTFGGGTKVEIK
# Variants of: B1
# Assay: yeast display scFab, FACS + sequencing
# Summary of the method: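 The non-specific binding call was based on sorted and sequenced yeast displaying a heavy-chain CDR mutant scFab library. Labelling used anti-Myc with biotinylated ovalbumin (260 μg/mL in PBSB, 3 h, room temperature) or soluble membrane proteins (130 μg/mL, 20 min on ice), and FACS collected the top 25% and bottom 10% of binders in two replicates. Positive meant present in ≥3 of 4 pooled positive samples and in no negatives, and negative meant the converse.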
row,Variant,non-specific binding call
1,SEARSAVV,no binding
2,SEARSAVS,no binding
3,SEARSAVY,no binding
4,SEARSAVA,no binding
5,VEGGGDGV,no binding
6,VEGGGDGA,no binding
7,VEGGGDGD,no binding
8,VEEEDYSS,binds
9,VEEEGDSA,no binding
10,VEAGDAAA,no binding
11,VEAGDAAV,no binding
12,VEAGDALV,no binding
13,FEETDAGD,binds
14,SEARSYVV,no binding
15,DEETNSGA,binds
16,SEARSAAV,no binding
17,DEAGDAVV,no binding
18,SEARSAGV,no binding
19,VEEEAFAV,no binding
20,DEARGAGD,no binding
21,YEEGTDWY,no binding
22,YEGGGDLV,no binding

row,Variant,non-specific binding call
1,DEAGGDGY,no binding
2,AEARSDGA,no binding
3,VEAGDDSA,no binding
4,SEARSDGY,no binding
5,SEARSDGF,no binding
6,SEARSDGS,no binding
7,DEARNAGA,no binding
8,VEAGDSWV,no binding
9,YEERTAAA,binds
10,AEAGDAVV,no binding
11,SEGGDAWV,no binding
12,VEGGGAVV,no binding
13,VEGGGYGV,no binding
14,VEGGGSVD,no binding
15,SEARNDGA,no binding
16,VEEEGDWV,no binding
17,VEEEGDWD,no binding
18,VEEEGSGV,no binding
19,VEEEGSGA,no binding
20,VEGGGDVD,no binding
21,VEGGGDVY,no binding
22,VEGGGDVA,no binding

row,Variant,non-specific binding call
1,VEGGGDVV,no binding
2,SEARSYLV,no binding
3,FEEGTDWY,no binding
4,VEGGGFAY,no binding
5,SEEASDGA,no binding
6,VEGEDAGA,no binding
7,FEETDASA,binds
8,DEGGGAGS,no binding
9,SEEEGASV,no binding
10,DEGGGDGA,no binding
11,SEGGDAGD,no binding
12,DEGEDAGA,no binding
13,VEARNDWA chain 1 M81I,binds
14,VEEEGDVY,no binding
15,VEEEGDVA,no binding
16,SEEGTAGA,no binding
17,SEEGTAGD,no binding
18,DATTDSVD,no binding
19,DEGAGDGF,binds
20,SEEGSDAS,no binding
21,FEAGDSGA,no binding
22,VATTDSVD,no binding

row,Variant,non-specific binding call
1,DEGGDDAA,no binding
2,VEGGGFSV,no binding
3,SEARNAGD,no binding
4,VEAGDAVA,no binding
5,AEERASAF,binds
6,VEGGADVF,no binding
7,SEEGTDGV,no binding
8,VEEEGALD,no binding
9,SEARSDAV,no binding
10,SEARSDAA,no binding
11,SEARSDAD,no binding
12,SEARSDAS,no binding
13,SEEASSSA,no binding
14,SEARSDVD,no binding
15,SEARSDVY,no binding
16,SEARSDVF,no binding
17,SEARSDVV,no binding
18,SEARSSGF,no binding
19,SEARSSGV,no binding
20,SEARSSGY,no binding
21,FEEEGSAA,no binding
22,VEAGTAVA,no binding

row,Variant,non-specific binding call
1,SEARSALV,no binding
2,SEARSALD,no binding
3,SEARSALA,no binding
4,VEARNAGA,no binding
5,VEGGGDWA,no binding
6,VEGGGDWS,no binding
7,VEGAAAGS,no binding
8,SEEEGSAA,no binding
9,VEAGSDGV,no binding
10,YEGGGFSV,no binding
11,YEGGGDGD,no binding
12,YEGGGDGA,no binding
13,AATTSFVV,no binding
14,YEGGGSAV,no binding
15,YEGGGDWV,no binding
16,YEGGGDWF,no binding
17,SEARSFGV,no binding
18,FEATASWS,binds
19,VEEEGDGV,no binding
20,VEEEGDGA,no binding
